Assay results as given in patent US20240026032A1 (Alexion, published 2024).

Tests used:
[1] = target: T1, Programmed Death 1 (PD-1) Fc chimera (R&D Systems, Catalog # 1086-PD-050) (human, UniProt Q15116 25-167); experiment: BLI (Octet Red), TPP-986 loaded on anti-human IgG Fc tips, DLAT 10 µg/mL bound first, then PD-1 Fc 12.5 µg/mL
T1 construct: Bought reagent; not shown: Fc part of the bought chimera (captured by anti-human Fc tips)
Protocol: (§1) Antibodies and antibody fusions were diluted to 16 μg/mL in PBS and loaded onto anti-human IgG Fc tips (ForteBio, Catalog # 18-5064). Human DLAT recombinant protein (ProSpec, Catalog # ENZ-082) was diluted into PBS to 10 μg/mL. […] Finally, a dissociation step in PBS was performed to determine dissociation from the bound antibodies.

[2] = target: T2, Human DLAT recombinant protein (ProSpec, Catalog # ENZ-082) (human, UniProt P10515 87-647, limits assumed); experiment: BIAcore kinetics, antibody captured on anti-mouse surface, DLAT (Prospec) as analyte
T2 construct: also called DLAT antigen; Dihydrolipoamide Acetyltransferase
T2 sequence (looked up): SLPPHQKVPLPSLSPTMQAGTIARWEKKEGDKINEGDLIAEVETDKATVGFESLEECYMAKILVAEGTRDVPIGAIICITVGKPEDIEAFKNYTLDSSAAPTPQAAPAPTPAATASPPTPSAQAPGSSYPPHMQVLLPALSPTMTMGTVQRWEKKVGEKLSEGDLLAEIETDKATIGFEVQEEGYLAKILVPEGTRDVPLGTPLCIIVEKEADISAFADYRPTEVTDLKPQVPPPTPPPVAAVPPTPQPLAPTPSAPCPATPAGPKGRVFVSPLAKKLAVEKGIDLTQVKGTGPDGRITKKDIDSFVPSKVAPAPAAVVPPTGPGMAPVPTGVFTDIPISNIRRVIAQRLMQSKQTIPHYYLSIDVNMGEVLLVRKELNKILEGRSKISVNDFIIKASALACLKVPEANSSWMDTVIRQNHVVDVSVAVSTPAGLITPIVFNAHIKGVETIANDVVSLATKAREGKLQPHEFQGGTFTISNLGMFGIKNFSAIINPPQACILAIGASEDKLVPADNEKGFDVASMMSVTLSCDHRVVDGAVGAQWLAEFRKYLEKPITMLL

[3] = target: T1, Programmed Death 1 (PD-1) Fc chimera …; experiment: BLI (Octet), PD-1 Fc captured on anti-human Fc tips, TPP-994 at 10 µg/mL in PBS as analyte
Protocol: (§2) Final dissociation in PBS was performed in the last step on the Bio-Layer Interferometry (BLI) data.

[4] = target: T1, Programmed Death 1 (PD-1) Fc chimera …; experiment: BLI (Octet), PD-1 Fc captured on anti-human Fc tips, TPP-995 at 10 µg/mL in PBS as analyte
Protocol: as §2

[5] = target: T2, Human DLAT recombinant protein …; experiment: BIAcore, AntiFc_TPP992_DLAT, kinetics from single concentration curve (12.5nM DLAT)
[6] = target: T1, Programmed Death 1 (PD-1) Fc chimera …; experiment: BLI (Octet Red), TPP-992 loaded on anti-human IgG Fc tips, DLAT 10 µg/mL bound first, then PD-1 Fc 12.5 µg/mL
Protocol: as §1

T1 sequence (Q15116 25-167, change not shown): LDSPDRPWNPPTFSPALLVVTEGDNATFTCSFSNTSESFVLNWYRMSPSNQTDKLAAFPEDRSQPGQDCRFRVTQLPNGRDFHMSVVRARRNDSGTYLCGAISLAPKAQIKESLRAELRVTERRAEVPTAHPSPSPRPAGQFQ

B1: TPP-986, human IgG2/4 PD5 antibody, N-terminus PD-L1 HC (antibody)
heavy: FTVTVPKDLYVVEYGSNMTIECKFPVEKQLDLAALIVYWEMEDKNIIQFVHGEEDLKVQHSSYRQRARLLKDQLSLGNAALQITDVKLQDAGVYRCMISYGGADYKRITVKVNAGGSSRSSSSGGGGSGGGGQLQLQESGPGLVKPSETLSLTCIVSGGSISRNSYYWGWIRQPPGKGLEWIGSIVYSGSTYHQPSLKSRVTIFLDTSKNQFFLKLTSVTAADTAVYYCARGTRATTWPPPIGYWGQGTLVTVSSASTKGPSVFPLAPCSRSTSESTAALGCLVKDYFPEPVTVSWNSGALTSGVHTFPAVLQSSGLYSLSSVVTVPSSNFGTQTYTCNVDHKPSNTKVDKTVERKCCVECPPCPAPPVAGPSVFLFPPKPKDTLMISRTPEVTCVVVDVSQEDPEVQFNWYVDGVEVHNAKTKPREEQFNSTYRVVSVLTVLHQDWLNGKEYKCKVSNKGLPSSIEKTISKAKGQPREPQVYTLPPSQEEMTKNQVSLTCLVKGFYPSDIAVEWESNGQPENNYKTTPPVLDSDGSFFLYSRLTVDKSRWQEGNVFSCSVMHEALHNHYTQKSLSLSLGK
light: QSVLTQPPSVSAAPGQKVTVSCFGSSSNIGNYFASWYQQLPGAAPRLLIYGNNERPSGIPDRFSGSKSGTSATLVITGLQTGDEAAYYCATWDSSLSAVVFGGGTKLTVLGQPKANPTVTLFPPSSEELQANKATLVCLISDFYPGAVTVAWKADGSPVKAGVETTKPSKQSNNKYAASSYLSLTPEQWKSHRSYSCQVTHEGSTVEKTVAPTECS
notes: Antibody fused with the human PD-L1 variable-like domain
- binding result [1]: binds

B2: TPP-1005 (mIgG1 DWZ Ab) (antibody, V domains shown)
VH: EVQLLESGGDVVQPGGSLRLSCVASGFTLTNYVTAWVRRRPGKGLEWISGMTHGAVATYYSDSVRGRFSSSRDTSRSTLYLQMNDLTVEDTAIYYCAKSLHRSGTSLSYWGQGTLVTVSS
VL: QSVLTQPPSASGTPGQNINISCSGTTSNIGGSNVDWYQHVPGTAPKLFIHSNNQRPSGVPARFSASKSGTSASLAISGLQSEDEADYYCATWDVRLLAYVFGSATEVTVLR
notes: also called murine IgG1 DWZ
- Kd [2]: 1720 pM
- koff [2]: 0.000149 s⁻¹
- kon [2]: 86300 M⁻¹ s⁻¹

B3: TPP-994 (PD2 with PD-L1 fused to the C-terminus of the heavy chain) (Fab)
heavy: EVQLVESGGGLVKPGGSLRLSCAASGFTFGSYSMTWVRQAPGKGLEWVSFISTVSTYIYYPDSVKGRFTISRDNAKNSLYLQMNSLRAEDTAVYYCARVSGRGSAARDGEKGTYYYYMDVWGKGTTVTVSSASTKGPSVFPLAPSSKSTSGGTAALGCLVKDYFPEPVTVSWNSGALTSGVHTFPAVLQSSGLYSLSSVVTVPSSSLGTQTYICNVNHKPSNTKVDKRVEPKSCGGSSRSSSSGGGGSGGGGFTVTVPKDLYVVEYGSNMTIECKFPVEKQLDLAALIVYWEMEDKNIIQFVHGEEDLKVQHSSYRQRARLLKDQLSLGNAALQITDVKLQDAGVYRCMISYGGADYKRITVKVNA
light: SSELTQDPAVSVALGQTVTITCQGDSLRSYYASWYQQKPGQAPVLVIFGKNNRPSGIPDRFSGSRSGNTASLTITGAQAEDEADYFCDSRDSSANHWVFGGGTKLTVLQPKAAPSVTLFPPSSEELQANKATLVCLISDFYPGAVTVAWKADSSPVKAGVETTTPSKQSNNKYAASSYLSLTPEQWKSHKSYSCQVTHEGSTVEKTVAPTECS
notes: Fab fusion with the human PD-L1 variable-like domain
- binding result [3]: binds

B4: TPP-995 (PD2 with PD-L1 fused to the N-terminus of the heavy chain) (Fab)
heavy: FTVTVPKDLYVVEYGSNMTIECKFPVEKQLDLAALIVYWEMEDKNIIQFVHGEEDLKVQHSSYRQRARLLKDQLSLGNAALQITDVKLQDAGVYRCMISYGGADYKRITVKVNAGGSSRSSSSGGGGSGGGGEVQLVESGGGLVKPGGSLRLSCAASGFTFGSYSMTWVRQAPGKGLEWVSFISTVSTYIYYPDSVKGRFTISRDNAKNSLYLQMNSLRAEDTAVYYCARVSGRGSAARDGEKGTYYYYMDVWGKGTTVTVSSASTKGPSVFPLAPSSKSTSGGTAALGCLVKDYFPEPVTVSWNSGALTSGVHTFPAVLQSSGLYSLSSVVTVPSSSLGTQTYICNVNHKPSNTKVDKRVEPKSC
light: SSELTQDPAVSVALGQTVTITCQGDSLRSYYASWYQQKPGQAPVLVIFGKNNRPSGIPDRFSGSRSGNTASLTITGAQAEDEADYFCDSRDSSANHWVFGGGTKLTVLQPKAAPSVTLFPPSSEELQANKATLVCLISDFYPGAVTVAWKADSSPVKAGVETTTPSKQSNNKYAASSYLSLTPEQWKSHKSYSCQVTHEGSTVEKTVAPTECS
notes: as for B3
- binding result [4]: binds

B5: TPP-1004 (mIgG1 PD5 Ab) (antibody)
heavy: QLQLQESGPGLVKPSETLSLTCIVSGGSISRNSYYWGWIRQPPGKGLEWIGSIVYSGSTYHQPSLKSRVTIFLDTSKNQFFLKLTSVTAADTAVYYCARGTRATTWPPPIGYWGQGTLVTVSSAKTTPPSVYPLAPGSAAQTNSMVTLGCLVKGYFPEPVTVTWNSGSLSSGVHTFPAVLQSDLYTLSSSVTVPSSTWPSQTVTCNVAHPASSTKVDKKIVPRDCGCKPCICTVPEVSSVFIFPPKPKDVLTITLTPKVTCVVVDISKDDPEVQFSWFVDDVEVHTAQTKPREEQINSTFRSVSELPIMHQDWLNGKEFKCRVNSAAFPAPIEKTISKTKGRPKAPQVYTIPPPKEQMAKDKVSLTCMITNFFPEDITVEWQWNGQPAENYKNTQPIMDTDGSYFVYSKLNVQKSNWEAGNTFTCSVLHEGLHNHHTEKSLSHSPGK
light: QSVLTQPPSVSAAPGQKVTVSCFGSSSNIGNYFASWYQQLPGAAPRLLIYGNNERPSGIPDRFSGSKSGTSATLVITGLQTGDEAAYYCATWDSSLSAVVFGGGTKLTVLGQPRADAAPTVSIFPPSSEQLTSGGASVVCFLNNFYPKDINVKWKIDGSERQNGVLNSWTDQDSKDSTYSMSSTLTLTKDEYERHNSYTCEATHKTSTSPIVKSFNRNEC
notes: also called murine IgG1 PD5; Mouse PD5
- Kd [2]: 526 pM
- koff [2]: 1.94e-05 s⁻¹
- kon [2]: 36900 M⁻¹ s⁻¹

B6: TPP-1003 (mIgG1 PD2 Ab) (antibody, V domains shown)
VH: EVQLVESGGGLVKPGGSLRLSCAASGFTFGSYSMTWVRQAPGKGLEWVSFISTVSTYIYYPDSVKGRFTISRDNAKNSLYLQMNSLRAEDTAVYYCARVSGRGSAARDGEKGTYYYYMDVWGKGTTVTVSS
VL: SSELTQDPAVSVALGQTVTITCQGDSLRSYYASWYQQKPGQAPVLVIFGKNNRPSGIPDRFSGSRSGNTASLTITGAQAEDEADYFCDSRDSSANHWVFGGGTKLTVLQ
notes: also called mouse IgG1 chimera anti-DLAT antibody PD2
- Kd [2]: 242 pM
- koff [2]: 4.68e-05 s⁻¹
- kon [2]: 193000 M⁻¹ s⁻¹

B7: TPP-992, human IgG2/4 PD5 antibody, N-terminus PD-L1 LC (antibody)
heavy: QLQLQESGPGLVKPSETLSLTCIVSGGSISRNSYYWGWIRQPPGKGLEWIGSIVYSGSTYHQPSLKSRVTIFLDTSKNQFFLKLTSVTAADTAVYYCARGTRATTWPPPIGYWGQGTLVTVSSASTKGPSVFPLAPCSRSTSESTAALGCLVKDYFPEPVTVSWNSGALTSGVHTFPAVLQSSGLYSLSSVVTVPSSNFGTQTYTCNVDHKPSNTKVDKTVERKCCVECPPCPAPPVAGPSVFLFPPKPKDTLMISRTPEVTCVVVDVSQEDPEVQFNWYVDGVEVHNAKTKPREEQFNSTYRVVSVLTVLHQDWLNGKEYKCKVSNKGLPSSIEKTISKAKGQPREPQVYTLPPSQEEMTKNQVSLTCLVKGFYPSDIAVEWESNGQPENNYKTTPPVLDSDGSFFLYSRLTVDKSRWQEGNVFSCSVMHEALHNHYTQKSLSLSLGK
light: FTVTVPKDLYVVEYGSNMTIECKFPVEKQLDLAALIVYWEMEDKNIIQFVHGEEDLKVQHSSYRQRARLLKDQLSLGNAALQITDVKLQDAGVYRCMISYGGADYKRITVKVNAGGSSRSSSSGGGGSGGGGQSVLTQPPSVSAAPGQKVTVSCFGSSSNIGNYFASWYQQLPGAAPRLLIYGNNERPSGIPDRFSGSKSGTSATLVITGLQTGDEAAYYCATWDSSLSAVVFGGGTKLTVLGQPKANPTVTLFPPSSEELQANKATLVCLISDFYPGAVTVAWKADGSPVKAGVETTKPSKQSNNKYAASSYLSLTPEQWKSHRSYSCQVTHEGSTVEKTVAPTECS
notes: as for B1
- Kd [5]: 184 pM
- koff [5]: 0.000238 s⁻¹
- kon [5]: 1.29e+06 M⁻¹ s⁻¹
- binding result [6]: binds
